Reference: patent US20260224618A1 (ORICELL THERAPEUTICS, published 2026)

Legend:
Human MSLN-His antigen [1] = target: T1, Human MSLN-His antigen (human, UniProt Q13421 296-580, limits assumed); assay: ELISA, plate coated with 2 ug/ml MSLN-His, VHH-Fc diluted 2.5-fold from 200 nM, anti-human IgG Fc HRP, OD450
T1 construct: also called MSLN-his protein; human MSLN protein; not shown: His tag
Experimental: (§1) A high-absorption 384-well plate was coated with 2 μg/ml of MSLN-His […], and left standing at 4° C. overnight. The plate was washed three times with 1×PBST, and blocked with 5% of skimmed milk at room temperature for 2 h. During the blocking, the antibody MSLN-VHH was diluted 2.5-fold starting from a concentration of 200 nM for a total of 11 gradients. At the end of blocking, the plate was washed three times with 1×PT, into which were added corresponding diluted primary antibodies at 30 μl/well and incubated with shaking at room temperature for 1 h. The plate was washed three times with 1×PBST, into which were then added secondary antibodies Anti-human IgG Fc Antibody HRP (abcam, Item No. ab99759) and incubated at room temperature for 30-60 min. The plate was washed seven times with 1×PBST, into which was then added a TMB developer, and 2M phosphoric acid was added 3-5 min later to stop the reaction. The absorbance was read at a wavelength of 450 nm.

Human MSLN-His antigen [2] = target: T1, Human MSLN-His antigen; assay: BLI (ForteBio), AHC probe, nanobody at 100 nM, human MSLN-His 2-fold diluted from 100 nM
Experimental: MSLN nanobodies with flow cytometric binding activity were diluted to 100 nM and added into a 384-well plate. Human MSLN-His antigens were 2-fold diluted to 100 nM for a total of 7 gradients, and added into a 384-well plate. An AHC probe (Sartorius, Item No. 18-5060) was used, with the binding time set to 180 sec, the dissociation time to 360 sec, the baseline to 60 sec, and the regeneration cycle to three times, each for 5 sec. After then, the binding-dissociation curve was fitted using software to calculate the affinity of the antibodies.

Human MSLN-His antigen [3] = target: T1, Human MSLN-His antigen; assay: ELISA, plate coated with 2 ug/ml MSLN-His, antibody diluted 2.5-fold from 200 nM, anti-human IgG Fc HRP, OD450
Experimental: as §1

T1 sequence (Q13421 other isoform, or with tags, fused parts or gaps limits assumed): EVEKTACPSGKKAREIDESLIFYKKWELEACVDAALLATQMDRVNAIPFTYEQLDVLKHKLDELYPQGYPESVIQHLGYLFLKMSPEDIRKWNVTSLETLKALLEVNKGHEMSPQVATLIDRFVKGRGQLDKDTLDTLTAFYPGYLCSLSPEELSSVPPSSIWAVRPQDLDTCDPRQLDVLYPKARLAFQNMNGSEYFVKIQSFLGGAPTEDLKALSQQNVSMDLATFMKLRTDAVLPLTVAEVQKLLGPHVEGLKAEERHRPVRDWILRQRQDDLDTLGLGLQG

B1: MSLN48 VHH-Fc fusion protein (Fc fusion)
chain: QVQLQESGGGLVQPGGSLRLSCAASESIFSNYSASWYRQAPGKQRELVATIARTGSAFHLGSVKGRFTISRDNAKRTVYLQMNSLLPEDTAVYYCNVWDSWGQGTQVTVSS
notes: Tested as bivalent VHH-Fc expressed in EXPI293; also called MSLN-VHH; MSLN nanobody 48; not shown: Fc of the VHH-Fc fusion
EC50 (read off the curve) (Human MSLN-His antigen [1]): ~7000 pM

B2: MSLN45 VHH-Fc fusion protein (Fc fusion)
chain: QVQLQESGGGLVQPGGSLRLSCAASGSIFSINAMGWYRQPPGKQRELVAATSWGGRTNYADSVEGRFTISRDNAKNTVYLQMNSLKPEDTAVYYCKLWDGSSWDIYWGQGTQVTVSS
notes: Tested as bivalent VHH-Fc expressed in EXPI293 and detected with anti-human IgG Fc; also called MSLN-VHH; MSLN nanobody 45; not shown: Fc of the VHH-Fc fusion
EC50 (read off the curve) (Human MSLN-His antigen [1]): ~700 pM

B3: MSLN55 VHH-Fc fusion protein (Fc fusion)
chain: QVQLQESGGGLVQSGGSLKLSCAASGNIASINAMGWYRQPPGKQRELVAATSWGGRTNYADSVEGRFTISRDNAKNTVYLQMNSLKPEDTAVYYCKLWDGSSWDIYWGQGTQVTVSS
notes: Tested as bivalent VHH-Fc expressed in EXPI293; also called MSLN-VHH; MSLN nanobody 55; not shown: Fc of the VHH-Fc fusion
EC50 (read off the curve) (Human MSLN-His antigen [1]): ~500 pM

B4: MSLN59 VHH-Fc fusion protein (Fc fusion)
chain: QVQLQESGGGLVQPGGSLRLSCTASKRIDSINAMGWYRQPPGKQRELVAATSWGGRTNYADSVEGRFTISRDNAKNTVYLQMNSLKPEDTAVYYCKLWDGSSWDIYWGQGTQVTVSS
notes: Tested as bivalent VHH-Fc expressed in EXPI293; also called MSLN-VHH; MSLN nanobody 59; not shown: Fc of the VHH-Fc fusion
EC50 (read off the curve) (Human MSLN-His antigen [1]): ~500 pM

B5: MSLN58 VHH-Fc fusion protein (Fc fusion)
chain: QVQLQESGGGTVQPGGSLRLSCEAVGDSVSINAMGWYRQPPGKQRELVAATSWGGRTNYADSVEGRFTISRDNAKNTVYLQMNSLKPEDTAVYYCKLWDGSSWDIYWGQGTQVTVSS
notes: Tested as bivalent VHH-Fc expressed in EXPI293; also called MSLN-VHH; MSLN nanobody 58; not shown: Fc of the VHH-Fc fusion
EC50 (read off the curve) (Human MSLN-His antigen [1]): ~400 pM

B6: MSLN47 VHH-Fc fusion protein (Fc fusion)
chain: QVQLQESGGGLVQAGGSLRLSCAASGSIFSINAMGWYRQPPGKQRELVAATSWGGRTNYADSVEGRFTISRDNAKNTVYLQMNSLKPEDTAVYYCKLWDGSSWDIYWGQGTQVTVSS
notes: Tested as bivalent VHH-Fc expressed in EXPI293; also called MSLN-VHH; MSLN nanobody 47; not shown: Fc of the VHH-Fc fusion
EC50 (read off the curve) (Human MSLN-His antigen [1]): ~800 pM

B7: MSLN57 VHH-Fc fusion protein (Fc fusion)
chain: QVQLQESGGGMVQPGGSLRLSCAASGSIFSINAMGWYRQPPGKQRELVAATSWGGRTNYADSVEGRFTISRDNAKNTVYLQMNSLKPEDTAVYYCKLWDGSSWDIYWGQGTQVTVSS
notes: Tested as bivalent VHH-Fc expressed in EXPI293; also called MSLN-VHH; MSLN nanobody 57; not shown: Fc of the VHH-Fc fusion
EC50 (read off the curve) (Human MSLN-His antigen [1]): ~600 pM

B8: MSLN51 VHH-Fc fusion protein (Fc fusion)
chain: QVQLQESGGGLVQTGGSLRLSCAASGSIFSINAMGWYRQPPGKQRELVAATSWGGRTNYADSVEGRFTISRDNAKNTVYLQMNSLKPEDTAVYYCKLWDGSSWDIYWGQGTQVTVSS
notes: Tested as bivalent VHH-Fc expressed in EXPI293; also called MSLN-VHH; MSLN nanobody 51; not shown: Fc of the VHH-Fc fusion
EC50 (read off the curve) (Human MSLN-His antigen [1]): ~800 pM

B9: MSLN46 VHH-Fc fusion protein (Fc fusion)
chain: QVQLQESGGGLVQAGGSLRLSCEASGHTDSYYPKAWFRQAPGKEREFVASIGWGGRMTAYADSVKGRFTVSRTYAKNTVYLQMNSLKPEDTAVYYCAAGIGWAPTADSGEYDYWGQGTQVTVSS
notes: Tested as bivalent VHH-Fc expressed in EXPI293; also called MSLN-VHH; MSLN nanobody 46; not shown: Fc of the VHH-Fc fusion
Kd (Human MSLN-His antigen [2]): 2150 pM
EC50 (read off the curve) (Human MSLN-His antigen [1]): ~1000 pM

B10: MSLN53 VHH-Fc fusion protein (Fc fusion)
chain: QVQLQESGGGLVQPGGSLTLSCEASGHTDSYYPKAWFRQAPGKEREFVASIGWGGRMTAYADSVKGRFTVSRTYAKNTVYLQMNSLKPEDTAVYYCAAGIGWAPTADSGEYDYWGQGTQVTVSS
notes: Tested as bivalent VHH-Fc expressed in EXPI293; also called MLSN-53; MSLN-VHH; not shown: Fc of the VHH-Fc fusion
Kd (Human MSLN-His antigen [2]): 1410 pM
EC50 (read off the curve) (Human MSLN-His antigen [1]): ~800 pM

B11: MSLN52 VHH-Fc fusion protein (Fc fusion)
chain: QVQLQESGGGLVQAGGSLSLSCAASGHTDSYYPKAWFRQAPGKEREFVASIGWGGRMTAYADSVKGRFTVSRTYAKNTVYLQMNSLKPEDTAVYYCAAGIGWAPTADSGEYDYWGQGTQVTVSS
notes: Tested as bivalent VHH-Fc expressed in EXPI293; also called MSLN-VHH; MSLN nanobody 52; not shown: Fc of the VHH-Fc fusion
Kd (Human MSLN-His antigen [2]): 2580 pM
EC50 (read off the curve) (Human MSLN-His antigen [1]): ~1000 pM

B12: MSLN50 VHH-Fc fusion protein (Fc fusion)
chain: QVQLQESGGGLVQPGGSLRLSCAASGSISKIAIMGWYRQPPGNERELIAIANMTGTGVYRDTVKGRFTIRRDNAKNMVYLQMNNLKSEDTGVYYCHARQLGVGSFESWGQGTQVTVSS
notes: Tested as bivalent VHH-Fc expressed in EXPI293; also called MSLN-VHH; MSLN nanobody 50; not shown: Fc of the VHH-Fc fusion
EC50 (read off the curve) (Human MSLN-His antigen [1]): ~10000 pM

B13: positive control antibody P4 (antibody, V domains shown)
VH: QVQLQQSGPGLVTPSQTLSLTCAISGDSVSSNSATWNWIRQSPSRGLEWLGRTYYRSKWYNDYAVSVKSRMSINPDTSKNQFSLQLNSVTPEDTAVYYCARGMMTYYYGMDVWGQGTTVTVSS
VL: QPVLTQSSSLSASPGASASLTCTLRSGINVGPYRIYWYQQKPGSPPQYLLNYKSDSDKQQGSGVPSRFSGSKDASANAGVLLISGLRSEDEADYYCMIWHSSAAVFGGGTQLTVLS
notes: an AHC probe was used in the ForteBio assay; also called positive antibody P4
EC50 (read off the curve) (Human MSLN-His antigen [3]): ~800 pM
